Among the data in patent US20120213771A1 (published 2012) are Ka and Kd values, retold here.

Test [1] addresses T1, recombinant human CD27/TNFRSF7/Fc chimera (R&D Systems Catalog No. 382-CD) (UniProt P26842 20-191).
T1 chain: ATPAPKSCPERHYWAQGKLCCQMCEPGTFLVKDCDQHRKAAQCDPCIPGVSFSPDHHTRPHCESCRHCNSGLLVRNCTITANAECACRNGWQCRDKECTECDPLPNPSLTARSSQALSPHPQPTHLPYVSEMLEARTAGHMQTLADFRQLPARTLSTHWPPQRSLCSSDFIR
Nature of the test: Biacore SPR.

In test [2] the target is T1, recombinant human CD27/TNFRSF7/Fc …. The experiment in a line: Biacore SPR. In general terms: In SPR one partner is held on a chip, and binding of the other changes the refractive index at the surface.

The Kd is a measure of binding affinity in units of concentration.

B1: 1G5-1B9 (antibody, V domains shown)
VH: QVQLVESGGGVVQPGRSLRLSCAASGFSFSSYGMHWVRQAPGKGLEWVALLWYDGSHKDFADSVKGRFTISRDNSKNTLDLQMNSLRAEDTAVYYCAREGLAVPGHWYFDLWGRGTLVTVSS
VL: AIQLTQSPSSLSASVGDRVTITCRASQGISSALAWYQQKPGKAPKLLIYDASSLESGVPSRFSGSGSGTDFTLTISSLQPEDFATYYCQQFNTYPRTFGQGTKVEIK
Turning to B1, the Ka in test [1] came out at 2.55e+09 M⁻¹. In addition, in test [2], the dissociation constant (Kd) amounted to 0.402 nM.

B2: 3H8-1B11 (antibody, V domains shown)
VH: EVQLVESGGGLVQPGGSLRLSCAASGFTFSSYWMAWVRQAPGKGLEWLGNIKQDGSEKYYVDSVKGRFTISRDNAKNSLYLQMNSLRAEDTAVYYCVRELGMDWYFDLWGRGTLVTVSS
VL: EIVLTQSPATLSLSPGERATLSCRASQSVDSYLAWYQQKPGQAPRLLIYDASNRATGIPARFSGSGSGTDFTLTISNLEPEDFAVYYCQQRSNWPPTFGQGTKVEIK
Turning to B2, the Ka in test [1] was 1.81e+10 M⁻¹. The equilibrium dissociation constant (Kd) in test [2] is 0.0556 nM.

B3: 2C2-1A10 (antibody, V domains shown)
VH: QVQLVESGGGVVQPGRSLRLSCAASGFTFSSYDIHWVRQAPGKGLEWVAVIWNDGSNKYYADSVKGRFTISRDNSTNSLFLQMNSLRAEDTAVYYCVGGTADLEHWDQGTLVTVSS
VL: DIQMTQSPSSLSASVGDRVTITCRASQGISSWLAWYQQKPEKAPKSLIYAASSLQSGVPSRFSGSGSGTDFTLTISSLQPEDFATYYCQQYNSYPLTFGGGTKVEIK
Take B3: the Ka in test [1] was found to be 1.2e+10 M⁻¹. In addition, the Kd in test [2] was determined as 0.0841 nM.

B4: 1F5-1H5 (antibody, V domains shown)
VH: QVQLVESGGGVVQPGRSLRLSCAASGFTFSSYDMHWVRQAPGKGLEWVAVIWYDGSNKYYADSVKGRFTISRDNSKNTLYLQMNSLRAEDTAVYYCARGSGNWGFFDYWGQGTLVTVSS
VL: DIQMTQSPSSLSASVGDRVTITCRASQGISRWLAWYQQKPEKAPKSLIYAASSLQSGVPSRFSGSGSGTDFTLTISSLQPEDFATYYCQQYNTYPRTFGQGTKVEIK
On to B4, for which the Ka in test [1] worked out at 5.37e+09 M⁻¹. Further, in test [2], the Kd came to 0.186 nM.

B5: 3H12-1E12 (antibody, V domains shown)
VH: QVQLVESGGGVVQPGRSLRLSCATSGFTFSSYDMHWVRQAPGKGLEWVAVIWYDGSNKYYADSVKGRFTISRDNSKNTLYLQMNSLGDEDTAVYYCARGSGNWGFFDYWGQGTLVTVSS
VL: DIQMTQSPSSLSASVGDRVTITCRASQGISRWLAWYQQKPEKAPKSLIYAASSLQSGVPSRFSGSGSGTDFTLTISSLQPEDFATYYCQQYNTYPRTFGQGTKVEIK
In the case of B5, the Ka in test [1] amounted to 2.8e+09 M⁻¹. Besides, the Kd in test [2] was 0.358 nM.

B6: 3A10-G10 (antibody, V domains shown)
VH: QVQLVESGGGVVQPGRSLRLSCAASGFTFSHYGMHWVRQAPGKGPEWVAIIWYDGSNKYYADSVKGRFTISRDNSKNTLDLQMNSLRAEDTAVYYCARDGWTTMVRGLNVFDIWGQGTMVTVSS
VL: DIQMTQSPSSLSASVGDRVTITCRASQDISSWLAWYQQKPEKAPKSLIYAASSLQSGVPSRFSGSGSGTDFTLTISSLQPEDFATYYCQQYNSYPPTFGQGTRLEIK
On to B6, for which the Ka in test [1] is 4.97e+09 M⁻¹. Also, the equilibrium dissociation constant (Kd) in test [2] was determined as 0.202 nM.

B7: 1H8-B4 (antibody, V domains shown)
VH: QVQLVESGGGVVQPGRSLRLSCAASGFTFNIYDMHWVRQAPGKGLEWVAVIWYDGSNQYYADSVKGRFTISRDNSKNTLYLQMNILRAEDTAVYYCARGTHWGYFDYWGQGTLVTVSS
VL: DIQMTQSPSSLSASVGDRVTITCRASQGISSWLAWYQQKPEKAPKSLIYAASNLQSGVPSRFSGSGSGTDFTLTISSLQPEDFATYYCQQYNSYPRTFGQGTKVEIK
In the case of B7, the Ka in test [1] is 6.39e+09 M⁻¹. Moreover, the dissociation constant (Kd) in test [2] turned out to be 0.158 nM.

B8: 2G9-1D11 (antibody, V domains shown)
VH: QVQLVESGGGVVQPGRSLRLSCAASGFTLSSHDIHWVRQAPGKGLEWVAVIWNDGSNKYYADSVKGRFTISRDNSTNSLFLQMNSLRAEDTAVYYCVRGTADLEHWDQGTLVTVSS
VL: DIQMTQSPSSLSASVGDRVTITCRASQGISSWLAWYQQKPEKAPKSLIYAASSLQSGVPSRFSGSGSGTDFTLTISSLQPEDFATYYCQQYNSYPLTFGGGTKVEIK
Regarding B8, the Ka in test [1] stood at 6.6e+11 M⁻¹. In addition, the dissociation constant Kd in test [2] was determined as 0.00153 nM.
